Experimental data taken from patent publication US20230301998A1, “METHODS AND COMPOSITIONS FOR INDUCTION OF ANTITUMOR IMMUNITY” (Sanford Burnham Prebys Medical Discovery Institute, priority 2020, published 2023).

System: Nlrc5 and Nlrc5 target genes
Assay: Expression of antigen presentation genes / surface MHCI in B16 cells
Type: cell-based, mouse
Settings: B16 cells stimulated 24 hr (FIGS. 13E-G)

B1: interferon-gamma: interferon gamma (R&D Systems) used to stimulate cells (protein, UniProt P01579 24-161, looked up)
Interferon gamma: QDPYVKEAENLKKYFNAGHSDVADNGTLFLGILKNWKEESDRKIMQSQIVSFYFKLFKNFKDDQSIQKSVETIKEDMNVKFFNSNKKKRDDFEKLTNYSVTDLNVQRKAIHELIQVMAELSPAAKTGKRKRSQMLFRG
For B1, which “expression of PSMB9 and surface expression of MHCI (H-2Kb)” value is on record?
Its value is “increased”.
